US20230331811A1 (CCOA THERAPEUTICS, published 2023)

Columns and labels:
[1] = target: T1, Recombinant human ectodomain αIIbβ3, activated (high-affinity ligand binding conformation) (human, UniProt P08514 32-993; P05106 27-718, carboxyl groups coupled to the DETA silane layer by EDC/sulfo-NHS); assay: flow cytometry dose-response of Alexa488-fibrinogen on activated αIIbβ3 beads, DETA signal subtracted, one site specific binding fit
T1 construct: Also used here for the ELISA plate coated in a buffer with the same cations
T1 sequence (P08514 other isoform, or with tags, fused parts or gaps limits assumed, chain 1 of 2): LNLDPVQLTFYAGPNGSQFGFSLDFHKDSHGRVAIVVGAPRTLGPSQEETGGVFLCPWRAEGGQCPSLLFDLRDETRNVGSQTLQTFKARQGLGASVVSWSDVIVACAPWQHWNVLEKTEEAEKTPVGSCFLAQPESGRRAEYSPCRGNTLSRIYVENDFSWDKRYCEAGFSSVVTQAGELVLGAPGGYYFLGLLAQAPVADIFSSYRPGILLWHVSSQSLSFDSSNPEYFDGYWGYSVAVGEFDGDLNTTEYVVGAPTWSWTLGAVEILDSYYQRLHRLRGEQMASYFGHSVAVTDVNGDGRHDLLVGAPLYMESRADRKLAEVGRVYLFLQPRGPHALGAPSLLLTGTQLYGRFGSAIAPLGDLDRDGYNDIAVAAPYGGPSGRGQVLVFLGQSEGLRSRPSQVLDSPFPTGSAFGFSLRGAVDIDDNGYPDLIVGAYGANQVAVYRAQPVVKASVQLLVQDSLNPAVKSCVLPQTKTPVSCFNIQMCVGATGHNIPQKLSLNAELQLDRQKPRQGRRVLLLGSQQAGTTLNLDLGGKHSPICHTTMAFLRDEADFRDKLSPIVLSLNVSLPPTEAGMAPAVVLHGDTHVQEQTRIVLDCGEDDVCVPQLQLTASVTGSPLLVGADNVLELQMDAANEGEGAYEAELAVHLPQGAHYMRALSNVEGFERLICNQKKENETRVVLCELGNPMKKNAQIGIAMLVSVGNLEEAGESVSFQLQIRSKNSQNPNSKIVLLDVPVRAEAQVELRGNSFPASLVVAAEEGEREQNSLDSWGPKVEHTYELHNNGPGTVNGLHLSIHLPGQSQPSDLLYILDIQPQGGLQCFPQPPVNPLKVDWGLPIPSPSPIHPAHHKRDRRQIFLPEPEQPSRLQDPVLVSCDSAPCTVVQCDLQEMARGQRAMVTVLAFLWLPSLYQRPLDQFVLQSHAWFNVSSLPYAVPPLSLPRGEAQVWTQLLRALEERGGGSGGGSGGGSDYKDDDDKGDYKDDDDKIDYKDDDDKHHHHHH
T1 sequence (P05106 other isoform, or with tags, fused parts or gaps limits assumed, chain 2 of 2): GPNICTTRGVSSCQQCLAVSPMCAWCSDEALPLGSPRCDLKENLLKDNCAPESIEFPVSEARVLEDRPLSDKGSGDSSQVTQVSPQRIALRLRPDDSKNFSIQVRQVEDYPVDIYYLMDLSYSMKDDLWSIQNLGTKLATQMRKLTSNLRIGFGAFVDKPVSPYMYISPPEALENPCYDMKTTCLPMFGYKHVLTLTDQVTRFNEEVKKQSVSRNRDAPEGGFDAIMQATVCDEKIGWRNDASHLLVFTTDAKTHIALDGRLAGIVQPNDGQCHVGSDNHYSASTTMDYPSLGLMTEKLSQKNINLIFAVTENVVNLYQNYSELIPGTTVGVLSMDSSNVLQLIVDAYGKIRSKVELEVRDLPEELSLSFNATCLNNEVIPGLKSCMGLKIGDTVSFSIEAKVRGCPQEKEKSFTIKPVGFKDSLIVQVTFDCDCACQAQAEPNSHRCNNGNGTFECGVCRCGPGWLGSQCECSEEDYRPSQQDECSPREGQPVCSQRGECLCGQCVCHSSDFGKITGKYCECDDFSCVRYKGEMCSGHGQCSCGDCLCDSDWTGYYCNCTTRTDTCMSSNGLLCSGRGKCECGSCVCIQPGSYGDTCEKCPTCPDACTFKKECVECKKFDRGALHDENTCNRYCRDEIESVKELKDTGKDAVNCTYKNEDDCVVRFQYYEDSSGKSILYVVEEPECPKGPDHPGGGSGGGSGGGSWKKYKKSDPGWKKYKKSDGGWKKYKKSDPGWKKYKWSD
Protocol: 3 μL of 1×10⁸ beads/mL were mixed with the desired concentration of fluorescently labelled antibody or ligand to a final volume of 100 μL in PBS and incubated for 1 h. Following incubation, the samples were diluted to a final volume of 1 mL and flow cytometrically analyzed. Samples that were compared with one another were run on the same instrument under the same instrumental conditions (signal gain, flow rate etc.). Any differences in absolute mean fluorescence intensity (MFI) value between different experiments was due to variance between the two.
αIIbβ3 Coupled Bead Flow Cytometry Analysis. […] Ferromagnetic silica particles at each stage of the coating fabrication process were analyzed with flow cytometry for binding to (FIGS. 2A and 2B) PSI E1, and (FIG. 2C to 2F) fibrinogen. […] After the activation step, the beads were analyzed with flow cytometry for binding of Alexa488™ labelled fibrinogen (native αIIbβ3 ligand) and PAC-1 (an antibody specific for the active upright conformation of αIIbβ3) (See Table 2, FIGS. 2G to 2I). […] All analyses conducted as n≥3, data presented as mean±SD, analyzed with a two-tailed t-test, ns=not significant *P<0.05, **P<0.01, ***P<0.001 and ****P<0.0001.

[2] = target: T1, Recombinant human ectodomain αIIbβ3, …; assay: sandwich ELISA, αIIbβ3 coated on a 96-well plate in a buffer with Mg2+, Mn2+ and Ca2+ (anti-fibrinogen mouse IgG, anti-mouse IgG-HRP)
Protocol: Fibrinogen ELISA Assay. To ensure similar immobilization levels of recombinant human ectodomain aIIbβ3 between the ELISA plate and integrin coupled magnetic beads, the wells of a 96-well micro plate (Nunc MaxiSorp) were incubated with the same aIIbβ3 concentration per surface area as during the preparation of the magnetic beads, 6.6×10⁴ μg·mL⁻¹·c⁻². Each well was coated with aIIbβ3 or control proteins (BSA and β3−/− platelet lysate) by incubation of 6 μg/μL protein in binding buffer (TRIS buffered saline with 0.05% TWEEN-20 and 1 mM each of MgCl₂, MnCl₂ and CaCl₂)) at 4° C. overnight. Incubation of 3% skim milk (ED Millipore) and 2% TWEEN-20 for 1 hour at 37° C. was used for blocking. The concentration of aIIbβ3 per surface area of bead used when coating SAM coated beads is 6.6×10⁴ μg·mL⁻¹·cm⁻², therefore the wells of 96 well plates used were coated with the same density EDC/NHS quenching achieved by increase pH to 8.6. Bead concentration for synthesis: 6×10⁹ beads·mL⁻¹; Integrin-bead reaction concentration=250 μg·mL⁻¹; Integrin Used=6.6×10⁴ μg·mL⁻¹·cm⁻²; Well Surface Area (50 μL)=0.93 cm²; Concentration/wee for ELISA=6×10⁴ μg·mL⁻¹ (6 μL/well in 50 μL total volume); Stock [αIIbβ3]=5×10⁵ μg·mL⁻¹.
Fibrinogen binding. […] The OPD peroxidase reaction was stopped after 1 hour with 2 M H₂SO₄ and the absorbance was read at 492 nm. […]

[3] = target: T1, Recombinant human ectodomain αIIbβ3, …; assay: flow cytometry sandwich assay on αIIbβ3 coupled beads (anti-fibrinogen mouse IgG, FITC-labelled detection antibody), apparent Kd

B1: Fibrinogen (ligand)
alpha: ADSGEGDFLAEGGGVRGPRVVERHQSACKDSDWPFCSDEDWNYKCPSGCRMKGLIDEVNQDFTNRINKLKNSLFEYQKNNKDSHSLTTNIMEILRGDFSSANNRDNTYNRVSEDLRSRIEVLKRKVIEKVQHIQLLQKNVRAQLVDMKRLEVDIDIKIRSCRGSCSRALAREVDLKDYEDQQKQLEQVIAKDLLPSRDRQHLPLIKMKPVPDLVPGNFKSQLQKVPPEWKALTDMPQMRMELERPGGNEITRGGSTSYGTGSETESPRNPSSAGSWNSGSSGPGSTGNRNPGSSGTGGTATWKPGSSGPGSTGSWNSGSSGTGSTGNQNPGSPRPGSTGTWNPGSSERGSAGHWTSESSVSGSTGQWHSESGSFRPDSPGSGNARPNNPDWGTFEEVSGNVSPGTRREYHTEKLVTSKGDKELRTGKEKVTSGSTTTTRRSCSKTVTKTVIGPDGHKEVTKEVVTSEDGSDCPEAMDLGTLSGIGTLDGFRHRHPDEAAFFDTASTGKTFPGFFSPMLGEFVSETESRGSESGIFTNTKESSSHHPGIAEFPSRGKSSSYSKQFTSSTSYNRGDSTFESKSYKMADEAGSEADHEGTHSTKRGHAKSRPVRGIHTSPLGKPSLSP
beta: QGVNDNEEGFFSARGHRPLDKKREEAPSLRPAPPPISGGGYRARPAKAAATQKKVERKAPDAGGCLHADPDLGVLCPTGCQLQEALLQQERPIRNSVDELNNNVEAVSQTSSSSFQYMYLLKDLWQKRQKQVKDNENVVNEYSSELEKHQLYIDETVNSNIPTNLRVLRSILENLRSKIQKLESDVSAQMEYCRTPCTVSCNIPVVSGKECEEIIRKGGETSEMYLIQPDSSVKPYRVYCDMNTENGGWTVIQNRQDGSVDFGRKWDPYKQGFGNVATNTDGKNYCGLPGEYWLGNDKISQLTRMGPTELLIEMEDWKGDKVKAHYGGFTVQNEANKYQISVNKYRGTAGNALMDGASQLMGENRTMTIHNGMFFSTYDRDNDGWLTSDPRKQCSKEDGGGWWYNRCHAANPNGRYYWGGQYTWDMAKHGTDDGVVWMNWKGSWYSMRKMSMKIRPFFPQQ
gamma: YVATRDNCCILDERFGSYCPTTCGIADFLSTYQTKVDKDLQSLEDILHQVENKTSEVKQLIKAIQLTYNPDESSKPNMIDAATLKSRKMLEEIMKYEASILTHDSSIRYLQEIYNSNNQKIVNLKEKVAQLEAQCQEPCKDTVQIHDITGKDCQDIANKGAKQSGLYFIKPLKANQQFLVYCEIDGSGNGWTVFQKRLDGSVDFKKNWIQYKEGFGHLSPTGTTEFWLGNEKIHLISTQSAIPYALRVELEDWNGRTSTADYAMFKVGPEADKYRLTYAYFAGGDAGDAFDGFDFGDDPSDKFFTSHNGMQFSTWDNDNDKFEGNCAEQDGSGWWMNKCHAGHLNGVYYQGGTYSKASTPNGYDNGIIWATWKTRWYSMKKTTMKIIPFNRLTIGEGQQHHLGGAKQAGDV
modifications: Alexa 488 dye on lysines (positions not stated) in the results at the 2nd table and paragraph 103; unlabelled in the sandwich assay of paragraph 112. The native protein is a disulfide-linked dimer of the three chains; each chain is given once.
notes: It calls the protein 'bivalent fibrinogen'; also called Fg; Alexa488 labelled fibrinogen
Kd [1]: 78 nM
Kd [2]: 2200 nM
Kd [3]: 210 nM
